The values below come from patent publication US20190085323A1 (published 2019).

Experiment [1] concerns the target T1, HER2 on the surface of N87 gastric cancer cells (human, UniProt P04626 23-1255). As to the kind of experiment: cell-based or functional assay.
Experiment [2] has as its target T1, HER2 on the surface of N87 gastric …. The experiment can be described thus: flow cytometry on N87 cells, 0.5 nM scFv detected with AL1-RFP. In general terms: In flow cytometry, cells or beads pass a laser one at a time.
In experiment [3] the target is HER2 on the surface of N87 gastric cancer cells (human) (UniProt P04626). The experiment can be described thus: cell-based or functional assay.
For experiment [4] the target is unchanged. The experiment can be described thus: flow cytometry on N87 cells, 0.5 nM scFv detected with AL1-RFP.

B1: 31YCM#5 source scFv (scFv)
chain: DIQMTQSPSSLSASVGDRVTITCKSNQNLLDSHGWTYLHWYQQKPGKAPKLLIYDASNLYSGVPSRFSGSGSGTDFTLTISSLQPEDFATYYCSQSYRLPYTFGQGTKVEIKREVQLVESGGGLVQPGGSLRLSCKASGYTFGGSYMHWVRQAPGKGLEWVARIYPHYGYTYYADSVKGRFTISADTSKNTAYLQMNSLRAEDTAVYYCARGDDHFDYWGQGTLVTVSSASAAA
Consider B1, for which, in experiment [1], the “% cell viability (AL1)” value came out at 89.5% and the “% cell viability (AL2)” value was 71.8%. In experiment [2], this molecule showed an MFI of 165.

B2: 35CPT-9 source scFv (scFv)
chain: DIQMTQSPSSLSASVGGRVTITCKSNQNLLDSYGRTYLYWYQQKPGKAPKLLISGTSGLYSGVPSRFSGSGSGTDFTLTISSLQPEDFATYYCFQGYDYPFTFGQGTKVEIKREVQLVESGGGLVQPGGSLRLSCKASGYTFGDYGMHWVRQAPGKGLEWVAHIAPNDGITHYADSVKGRFTISADTSKNTAYLQMNSLRAEDTAVYYCARGYGWYDHVMDYWGQGTLVTVSSASAAA
For the molecule B2, in experiment [1], the “% cell viability (AL1)” value came to 69.8% and the “% cell viability (AL2)” value amounted to 17.9%. In addition, the MFI in experiment [2] amounted to 287.

B3: 29TYL#10 source scFv (scFv, V domains shown, not shown: large carriers)
VH: EVQLVESGGGLVQPGGSLRLSCKASGYTFTDGSMHWVRQAPGKGLEWVAYINPYFGDTYYADSVKGRFTISADTSKNTAYLQMNSLRAEDTAVYYCARGWIDYWGQGTLVTVSS
VL: DIQMTQSPSSLSASVGDRVTITCKSNQNLLLSNGRTFLYWYQQKPGKAPKLLIYGTSYLYSGVPSRFSGSGSGTDFTLTISSLQPEDFATYYCFQANHLPWTFGQGTKVEIKR
modifications: VL-linker-VH scFv; linker and E-tag not given
Turning to B3, in experiment [3], the % cell viability (AL1) amounted to 79.9% and the % cell viability (AL2) worked out at 64.8%. Moreover, the MFI in experiment [4] amounted to 444.

B4: 2835-28 source scFv (scFv, V domains shown, not shown: large carriers)
VH: B3 VH
VL: B3 VL
modifications: VL-linker-VH scFv; linker and E-tag not given
For B4, in experiment [3], the % cell viability (AL1) was determined as 52.8% and the % cell viability (AL2) amounted to 29.9%. The molecule further came in with an MFI in experiment [4] of 495.

B5: 30CHS-13 source scFv (scFv)
chain: DIQMTQSPSSLSASVGDRVTITCKSNQNLLDSGNQRTYLNWYQQKPGKAPKLLIYHTSRLYSGVPSRFSGSGSGTDFTLTISSLQPEDFATYYCSQTFRHPGTFGQGTKVEIKREVQLVESGGGLVQPGGSLRLSCKASGYTFGHYSMFWVRQAPGKGLEWVASIYPHYGHTYYADSVKGRFTISADTSKNTAYLQMNSLRAEDTAVYYCARGHWLDYWGQGTLVTVSSASAAA
With B5, in experiment [1], the “% cell viability (AL1)” value is 75.8% and the “% cell viability (AL2)” value was 77.7%. Moreover, in experiment [2], the MFI was 93.

B6: 30CHS-41 source scFv (scFv)
chain: DIQMTQSPSSLSASVGDRVTITCKSNQNLLDSGHQRTYLNWYQQKPGKAPKLLIYHTSLLYSGVPSRFSGSGSGTDFTLTISSLQPEDFATYYCSQTFRHPGTFGQGTKVEIKREVQLVESGGGLVQPGGSLRLSCKASGYTFTHWGMHWVRQAPGKGLEWVARINPYYGLTHYADSVKGRFTISADTSKNTAYLQMNSLRAEDTAVYYCARGHWLDYWGQGTLVTVSSASAAA
As for B6, in experiment [1], the “% cell viability (AL1)” value worked out at 77.6% and the “% cell viability (AL2)” value came out at 71.6%. This molecule displayed an MFI in experiment [2] of 153.
